Bridge positions count the residues as written; N and C are the ends. Square brackets hold non-standard residues; d marks the D form. Primed or numbered codes have the meaning given here. Ends that are not written are not given here. * marks the point of attachment. NMeBn(CF3)2 = C-terminal N-methyl bis(trifluoromethyl)benzyl amide; Glc = O-glucosyl on Ser side chain (Ser(OGlu)/Ser(OGlc)); NH(3,5-(CF3)2-benzyl) = FC(F)(F)c1cc(CN*)cc(C(F)(F)F)c1; OBzl(3,5-(CF3)2) = FC(F)(F)c1cc(CO*)cc(C(F)(F)F)c1; Glc″ = glucosyl on the serine side-chain oxygen; OBn(OMe)2 = C-terminal OBn(OMe)2 ester; Dmt = Cc1cc(O)cc(C)c1C[C@H](N)C(=O)O; NMe(benzyl) = CN(Cc1ccccc1)*; Nle = CCCC[C@H](N)C(=O)O; NHBn = c1ccc(CN*)cc1; OBn = c1ccc(CO*)cc1

Consider 40 molecules from patent US8026218.

First the molecules themselves.
B1: DmtDAlaGlyPheMetProLeuTrpOBn(CF3)2 (peptide)
peptide: [Dmt][dA]GFMPLW-{OBzl(3,5-(CF3)2)}
B2: TyrDAlaGlyPheSer(OGlu)ProLeuTrpNHBn(CF3)2 (peptide)
peptide: Y[dA]GFS(Glc)PLW-{NH(3,5-(CF3)2-benzyl)}
B3: DmtDAlaGlyPheMetProLeuTrpNHBn(CF3)2 (peptide)
peptide: [Dmt][dA]GFMPLW-{NH(3,5-(CF3)2-benzyl)}
B4: Tyr[DCysGlyPheNleProCys]TrpNHBn(CF3)2 (peptide)
peptide: Y[dC]GF[Nle]PCW-{NH(3,5-(CF3)2-benzyl)}
modifications: disulfide 2-7
B5: TyrDAlaGlyPheNleSer(OGlu)LeuTrpNHBn(CF3)2 (peptide)
peptide: Y[dA]GF[Nle]S(Glc″)LW-{NH(3,5-(CF3)2-benzyl)}
B6: DmtDAlaGlyPheMetProLeuTrpNHBn (peptide)
peptide: [Dmt][dA]GFMPLW-NHBn
B7: TyrDAlaGlyPheMetProLeuTrpOBn(CF3)2 (peptide)
peptide: Y[dA]GFMPLW-{OBzl(3,5-(CF3)2)}
B8: TyrDAlaGlyPhePheProLeuTrpOBn(CF3)2 (TY003) (peptide)
peptide: Y[dA]GFFPLW-{OBzl(3,5-(CF3)2)}
B9: TyrDAlaGlyPheNleProSer(OGlu)TrpNHBn(CF3)2 (peptide)
peptide: Y[dA]GF[Nle]PS(Glc)W-{NH(3,5-(CF3)2-benzyl)}
B10: TyrDAlaGlyPheMetProLeuTrpOBn (TY029) (peptide)
peptide: Y[dA]GFMPLW-OBn
B11: TyrDAlaGlyPheMetProLeuTrpNMeBn(CF3)2 (TY028) (peptide)
peptide: Y[dA]GFMPLW-{NMeBn(CF3)2}
B12: Tyr[DCysGlyPheDCys]ProLeuTrpNHBn(CF3)2 (peptide)
peptide: Y[dC]GF[dC]PLW-{NH(3,5-(CF3)2-benzyl)}
modifications: disulfide 2-5
B13: TyrDAlaGlyPheMet(O)ProLeuTrpOBn(CF3)2 (peptide)
peptide: YAGFMPLW
modifications: here or on the partner: D-Ala at 2; Met(O) at 5; C-terminal O-3,5-Bzl(CF3)2 ester
B14: TyrDAlaGlyPheMetProLeuTrpOBn(CF3)2 (TY005) (peptide)
peptide: Y[dA]GFMPLW-{OBzl(3,5-(CF3)2)}
B15: H-Tyr-D-Ala-Gly-Phe-Phe-Pro-Leu-Trp-O-3,5-Bzl(CF3)2 (peptide)
peptide: H-Y[dA]GFFPLW-{OBzl(3,5-(CF3)2)}
modifications: also: TFA salt
B16: Tyr[DCysGlyPheCys]ProLeuTrpNHBn(CF3)2 (peptide)
peptide: Y[dC]GFCPLW-{NH(3,5-(CF3)2-benzyl)}
modifications: disulfide 2-5
B17: TyrDAlaGlyPheNleProLeuTrpOBn(CF3)2 (peptide)
peptide: YAGFXPLW
modifications: here or on the partner: D-Ala at 2; Nle at 5 (written X); C-terminal O-3,5-Bzl(CF3)2 ester
B18: Tyr[DCysGlyPheNleProCys]TrpNHBn(CF3)2 (TY035) (peptide)
peptide: Y[dC]GF[Nle]PCW-{NH(3,5-(CF3)2-benzyl)}
modifications: disulfide 2-7
B19: H-Tyr-D-Ala-Gly-Phe-Leu-Pro-Leu-Trp-O-3,5-Bzl(CF3)2 (peptide)
peptide: H-Y[dA]GFLPLW-{OBzl(3,5-(CF3)2)}
modifications: also: TFA salt
B20: H-Tyr-D-Ala-Gly-Phe-Gly-Pro-Leu-Trp-O-3,5-Bzl(CF3)2 (peptide)
peptide: H-Y[dA]GFGPLW-{OBzl(3,5-(CF3)2)}
modifications: also: TFA salt
B21: TyrDAlaGlyPheLeuProLeuTrpOBn(CF3)2 (TY004) (peptide)
peptide: Y[dA]GFLPLW-{OBzl(3,5-(CF3)2)}
B22: TyrDAlaGlyPheNleProLeuTrpNHBn(CF3)2 (peptide)
peptide: YAGFXPLW
modifications: here or on the partner: D-Ala at 2; Nle at 5 (written X); C-terminal NH-3,5-Bzl(CF3)2 amide
B23: TyrDAlaGlyPheMet(O)ProLeuTrpOBn(CF3)2 (TY023) (peptide)
peptide: YAGFMPLW
modifications: here or on the partner: D-Ala at 2; Met(O) (oxidized methionine) at 5; C-terminal O-3,5-Bn(CF3)2 ester
B24: Tyr[DCysGlyPheNleProDCys]TrpNHBn(CF3)2 (peptide)
peptide: Y[dC]GF[Nle]P[dC]W-{NH(3,5-(CF3)2-benzyl)}
modifications: disulfide 2-7
B25: TyrDAlaGlyPheLeuProLeuTrpOBn(CF3)2 (peptide)
peptide: Y[dA]GFLPLW-{OBzl(3,5-(CF3)2)}
B26: TyrDAlaGlyPheMetProLeuTrpNMeBn (TY026) (peptide)
peptide: Y[dA]GFMPLW-{NMe(benzyl)}
B27: DmtDAlaGlyPheMetProLeuTrpOBn(CF3)2 (TY033) (peptide)
peptide: [Dmt][dA]GFMPLW-{OBzl(3,5-(CF3)2)}
B28: TyrDCysGlyPheMetProLeuTrpOBn(CF3)2 (TY031) (peptide)
peptide: Y[dC]GFMPLW-{OBzl(3,5-(CF3)2)}
B29: TyrDAlaGlyPheDPheProLeuTrpOBn(CF3)2 (TY007) (peptide)
peptide: Y[dA]GF[dF]PLW-{OBzl(3,5-(CF3)2)}
B30: TyrDAlaGlyPhePheProLeuTrpOBn(CF3)2 (peptide)
peptide: Y[dA]GFFPLW-{OBzl(3,5-(CF3)2)}
B31: TyrDAlaGlyPheGlyProLeuTrpOBn(CF3)2 (TY006) (peptide)
peptide: Y[dA]GFGPLW-{OBzl(3,5-(CF3)2)}
B32: TyrDAlaGlyPheMetProLeuTrpOBn(OMe)2 (TY030) (peptide)
peptide: Y[dA]GFMPLW-{OBn(OMe)2}
B33: H-Tyr-D-Ala-Gly-Phe-D-Phe-Pro-Leu-Trp-O-3,5-Bzl(CF3)2 (peptide)
peptide: H-Y[dA]GF[dF]PLW-{OBzl(3,5-(CF3)2)}
modifications: also: TFA salt
B34: TyrDAlaGlyPheGlyProLeuTrpOBn(CF3)2 (peptide)
peptide: Y[dA]GFGPLW-{OBzl(3,5-(CF3)2)}
modifications: also: TFA salt
B35: DmtDAlaGlyPheMetProLeuTrpNHBn (TY034) (peptide)
peptide: [Dmt][dA]GFMPLW-NHBn
B36: DmtDAlaGlyPheMetProLeuTrpNHBn(CF3)2 (TY032) (peptide)
peptide: [Dmt][dA]GFMPLW-{NH(3,5-(CF3)2-benzyl)}
B37: TyrDAlaGlyPheMetProLeuTrpNHBn(CF3)2 (peptide)
peptide: Y[dA]GFMPLW-{NH(3,5-(CF3)2-benzyl)}
B38: TyrDAlaGlyPheDPheProLeuTrpOBn(CF3)2 (peptide)
peptide: Y[dA]GF[dF]PLW-{OBzl(3,5-(CF3)2)}
B39: TyrDAlaGlyPheNleProLeuTrpOBn(CF3)2 (TY018) (peptide)
peptide: YAGFXPLW
modifications: here or on the partner: D-Ala at 2; Nle (norleucine) at 5 (X); C-terminal O-3,5-Bn(CF3)2 ester
B40: TyrDAlaGlyPheMetProLeuTrpNHBn(CF3)2 (TY027) (peptide)
peptide: Y[dA]GFMPLW-{NH(3,5-(CF3)2-benzyl)}

δ opioid receptor of the mouse isolated vas deferens (mouse), P32300, sequence (P32300 whole entry, stated change not applied): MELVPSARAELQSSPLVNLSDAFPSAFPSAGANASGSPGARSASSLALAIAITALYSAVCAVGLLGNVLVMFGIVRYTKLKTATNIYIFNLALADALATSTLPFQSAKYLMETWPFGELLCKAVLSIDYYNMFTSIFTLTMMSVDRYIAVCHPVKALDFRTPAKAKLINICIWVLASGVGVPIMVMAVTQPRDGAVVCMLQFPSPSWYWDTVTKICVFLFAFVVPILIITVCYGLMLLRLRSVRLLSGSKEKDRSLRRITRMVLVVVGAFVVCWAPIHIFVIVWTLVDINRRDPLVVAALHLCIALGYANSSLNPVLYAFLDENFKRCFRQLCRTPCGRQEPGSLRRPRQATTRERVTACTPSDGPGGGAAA

This assay addresses δ opioid receptor of the mouse isolated vas deferens (mouse), P32300. The assay is described as follows: cell-based or functional assay.
B1 came in with an MVD IC50 of 1.3 nM.

On to B2, for which the MVD IC50 worked out at 109 nM.

Regarding B3, the MVD IC50 turned out to be 1.8 nM.

For B4, the MVD (δ) IC50 is 85 nM.

Molecule B5 yielded an MVD IC50 of 18 nM.

Turning to B6, the MVD IC50 was 6.9 nM.

Molecule B7 showed an MVD (δ) IC50 of 22 nM and an MVD IC50 of 22.3 nM.

Turning to B8, the MVD opioid(delta) agonist IC50 is 905 nM.

Molecule B9 registered an MVD IC50 of 12.7 nM.

As for B10, the MVD opioid(delta) agonist IC50 came to 7.62 nM.

B11 yielded an MVD opioid(delta) agonist IC50 of 11.2 nM.

For the molecule B12, the MVD (δ) IC50 was determined as 8.3 nM.

As for B13, the MVD IC50 was 33 nM.

The molecule B14 displayed an MVD opioid(delta) agonist IC50 of 22.3 nM.

B15 yielded an MVD (δ) opioid agonist IC50 of 905 nM.

Regarding B16, the MVD (δ) IC50 was 73 nM.

For the molecule B17, the MVD IC50 stood at 16.8 nM.

As to B18, the MVD opioid(delta) agonist IC50 came to 84.7 nM.

B19: the MVD (δ) opioid agonist IC50 came out at 101 nM.

As to B20, the MVD (δ) opioid agonist IC50 was 172 nM.

B21 displayed an MVD opioid(delta) agonist IC50 of 101 nM.

In turn, B22 returned an MVD IC50 of 13.6 nM.

On to B23, for which the MVD opioid(delta) agonist IC50 was 33 nM.

B24: the MVD (δ) IC50 was 19 nM.

For the molecule B25, the MVD IC50 worked out at 101 nM.

Molecule B26 had an MVD opioid(delta) agonist IC50 of 7.89 nM.

On to B27, for which the MVD opioid(delta) agonist IC50 turned out to be 1.27 nM.

As for B28, the MVD opioid(delta) agonist IC50 turned out to be 235 nM.

In turn, B29 registered an MVD opioid(delta) agonist IC50 of 412 nM.

Take B30: the MVD IC50 turned out to be 905 nM.

Turning to B31, the MVD opioid(delta) agonist IC50 was found to be 172 nM.

For the molecule B32, the MVD opioid(delta) agonist IC50 is 12 nM.

B33 returned an MVD (δ) opioid agonist IC50 of 412 nM.

For the molecule B34, the MVD IC50 is 172 nM.

The molecule B35 had an MVD opioid(delta) agonist IC50 of 6.85 nM.

As to B36, the MVD opioid(delta) agonist IC50 was determined as 1.82 nM.

Take B37: the MVD IC50 was found to be 14.5 nM.

Turning to B38, the MVD IC50 is 412 nM.

Consider B39, for which the MVD opioid(delta) agonist IC50 came to 16.8 nM.

With B40, the MVD opioid(delta) agonist IC50 is 14.5 nM.
